Results as given in paper PMC1092277.

Assays:
[1] = molecular target: GST-Pax6 HD (wild type) (zebrafish); assay: pull-down
[2] = molecular target: GST-Pax6 HD R44A/R53A/R57A (zebrafish); assay: pull-down
[3] = molecular target: GST-Chx10 HD R44A (murine); assay: pull-down
[4] = molecular target: GST-Pax6 HD R58A (zebrafish, UniProt P26630 229-288, R286A); assay: EMSA
[5] = molecular target: GST-Chx10 HD Q50A (mouse, UniProt Q61412 148-207, Q197A); assay: EMSA
[6] = molecular target: GST-Pax6 HD R44A (zebrafish, UniProt P26630 229-288, R272A); assay: EMSA
[7] = molecular target: GST-Pax6 HD R53A (zebrafish, UniProt P26630 229-288, R281A); assay: EMSA
[8] = molecular target: GST-Chx10 HD R57A (mouse, UniProt Q61412 148-207, R204A); assay: EMSA
[9] = molecular target: GST-Pax6 HD R57A (zebrafish, UniProt P26630 229-288, R285A); assay: EMSA
[10] = molecular target: GST-Chx10 HD R53A (mouse, UniProt Q61412 148-207, R200A); assay: EMSA
[11] = molecular target: GST-Pax6 HD N51Q (zebrafish, UniProt P26630 229-288, N279Q); assay: EMSA
Sequence of GST-Pax6 HD N51Q (P26630 229-288 N279Q): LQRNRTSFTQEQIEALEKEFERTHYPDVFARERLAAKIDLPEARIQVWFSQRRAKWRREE

Sequence of GST-Pax6 HD R58A (P26630 229-288 R286A): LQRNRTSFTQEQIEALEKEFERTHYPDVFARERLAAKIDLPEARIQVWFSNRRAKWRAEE
Sequence of GST-Pax6 HD R53A (P26630 229-288 R281A): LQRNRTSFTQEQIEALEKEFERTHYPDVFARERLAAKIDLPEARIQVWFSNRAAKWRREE
Sequence of GST-Pax6 HD R44A (P26630 229-288 R272A): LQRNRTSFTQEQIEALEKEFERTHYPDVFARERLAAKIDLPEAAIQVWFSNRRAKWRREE
Sequence of GST-Chx10 HD R53A (Q61412 148-207 R200A): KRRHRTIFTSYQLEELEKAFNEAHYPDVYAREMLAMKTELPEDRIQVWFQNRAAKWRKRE
Sequence of GST-Pax6 HD R57A (P26630 229-288 R285A): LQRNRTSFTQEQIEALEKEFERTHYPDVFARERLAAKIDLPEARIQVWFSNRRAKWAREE
Sequence of GST-Chx10 HD R57A (Q61412 148-207 R204A): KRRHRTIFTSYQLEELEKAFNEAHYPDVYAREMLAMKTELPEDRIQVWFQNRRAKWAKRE
Sequence of GST-Chx10 HD Q50A (Q61412 148-207 Q197A): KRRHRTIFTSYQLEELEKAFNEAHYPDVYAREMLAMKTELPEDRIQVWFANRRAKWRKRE

Molecule: Pax6ΔHD(E101A/E112A/E120A/E128A)
- percent binding [1]: 11%

Molecule: Pax6ΔHD(E112A/E120A/D123A/E128A)
- percent binding [1]: 5%

Molecule: Pax6ΔHD(E112A/E120A/E128A)
- percent residual binding [1]: 15%

Molecule: Pax6ΔHD (in vitro translated)
- percent binding compared with the wild-type HD [2]: < 10%
- percent binding [3]: 50%

B1: HDp3 (dsDNA)
DNA 1: GATCCTCTAGATAATGCGATTAGCGTAG
DNA 2: GATCCTACGCTAATCGCATTATCTAGAG
- binding result [4]: binds
- binding result [5]: binds
- binding result [6]: no binding
- binding result [7]: no binding
- binding result [8]: binds
- binding result [9]: binds
- binding result [10]: no binding
- binding result [11]: no binding
